# Source: article PMC3262836
# Target: Archeoglobus fulgidus HypB (A. fulgidus)
# Test: SEC-MALS; SEC/LS, Superdex-75 HR10/30, 100 uL at 3 mg/mL, with 1 mM GMPPNP (GTP analog), 50 mM Tris pH 7.5, 0.1 M NaCl, 5 mM MgCl2, 1 mM TCEP, room temperature; monomer to dimer
substance,measurement,value
Archeoglobus fulgidus HypB (natural protein),stoichiometry N,2
